Patent publication US20220281960A1 (RAMOT AT TEL AVIV UNIVERSITY, published 2022)

Molecular target: T1, maltose binding protein (UniProt P0AEX9 27-396 = MBP)
T1 construct: also called MBP; carrier protein
Assay: ELISA on coated MBP

B1: P4-36 (antibody, V domains shown)
VH: EVQLVESGGGLVQPGRSLRLSCTDSGFTFSEYALSWVRQAPGKGLEWVGFIRSKAYGGTTEYAASVKGRFTISRDDSKSVAYLQMNSLKTEDTAVYFCTGPRPYYDSSGYYPYYFDYWGQGTLVTVSS
VL: QSALTQPRSVSGSPGQSVTISCTGSRSDVGGYDYVSWYQQHPGRVPKLMIYDVTKRPSGVPDRFSGSRSGNTASLTISGLQADDEADYYCSSFAGSSTYVVFGGGTTLTVL
notes: also called mAb P4-36; clone 3 antibody P4-36
binding result: no binding
